Some results are limits rather than exact numbers.

The source of these data is publication PMC9896449.

Assay [1] deals with ShAb01H02K (knob-in-hole heterodimer of ShAb01-Fc and ShAb02-Fc) (nurse shark (Ginglymostoma cirratum)). Kind of assay: BLI. In general terms: Biolayer interferometry detects binding as a change in optical thickness at a sensor tip.
Assay [2] addresses BiShAb0201 (ShAb02 VNAR - (GGGGS)5 - ShAb01 VNAR - human IgG1 Fc) (nurse shark (Ginglymostoma cirratum)). Kind of assay: BLI.

On to “SARS-CoV-2 RBD B.1.1.7, Alpha (N501Y) (from UniProt P0DTC2 331-527) (domain or fragment)”, for which, in assay [1], the Kd (usually the free concentration of one partner at which half of the binding sites on the other are occupied at equilibrium, for simple one-to-one binding) turned out to be 1.5 nM; the off-rate constant (koff) (usually the rate constant with which the complex falls apart) amounted to 0.000513 s⁻¹; the kon (commonly the second-order rate constant of association) amounted to 341000 M⁻¹ s⁻¹. In assay [2], the Kd turned out to be 1.8 nM, the koff came out at 0.00037 s⁻¹ and the on-rate (kon) turned out to be 207000 M⁻¹ s⁻¹.
In assay [1], “SARS-CoV-2 RBD B.1.351, Beta (K417N, E484K, N501Y) (from UniProt P0DTC2 331-527) (domain or fragment)” displayed an equilibrium dissociation constant (Kd) of 1.8 nM, a koff of 0.000538 s⁻¹ and a kon of 294000 M⁻¹ s⁻¹. In assay [2], this substance yielded a Kd of 2.1 nM, a koff of 0.000436 s⁻¹ and a kon of 206000 M⁻¹ s⁻¹.
In assay [1], “SARS-CoV-2 RBD B.1.427/429, Epsilon (L452R) (from UniProt P0DTC2 331-527) (domain or fragment)” showed a dissociation constant (Kd) of 0.08 nM, a koff of 1.21e-05 s⁻¹ and a kon of 156000 M⁻¹ s⁻¹. For the same substance, in assay [2], the Kd came to 1.2 nM, the koff worked out at 0.000133 s⁻¹ and the on-rate constant (kon) turned out to be 109000 M⁻¹ s⁻¹.
Take “SARS-CoV-2 RBD B.1.525, Eta, Iota (E484K) (from UniProt P0DTC2 331-527) (domain or fragment)”: in assay [1], the Kd worked out at 1.6 nM, the koff was found to be 0.000511 s⁻¹ and the kon worked out at 310000 M⁻¹ s⁻¹. In assay [2], this substance returned a dissociation constant (Kd) of 2 nM, a koff of 0.000415 s⁻¹ and a kon of 210000 M⁻¹ s⁻¹.
Regarding “SARS-CoV-2 RBD B.1.617, Kappa (L452R, E484Q) (from UniProt P0DTC2 331-527) (domain or fragment)”, in assay [1], the dissociation constant (Kd) came out at 2.2 nM, the koff stood at 0.000326 s⁻¹ and the kon worked out at 151000 M⁻¹ s⁻¹. In assay [2], this substance gave a dissociation constant (Kd) of 4.4 nM, a koff of 0.000238 s⁻¹ and a kon of 53600 M⁻¹ s⁻¹.
Turning to “SARS-CoV-2 RBD B.1.617.2, Delta (L452R, T478K) (from UniProt P0DTC2 331-527) (domain or fragment)”, in assay [1], the equilibrium dissociation constant (Kd) was less than 0.001 nM, the off-rate constant (koff) was less than 1e-07 s⁻¹ and the kon was found to be 90000 M⁻¹ s⁻¹. For the same substance, in assay [2], the Kd stood at 0.72 nM, the dissociation rate constant (koff) came to 4.1e-05 s⁻¹ and the on-rate constant (kon) is 57000 M⁻¹ s⁻¹.
In assay [1], “SARS-CoV-2 RBD E484K, N501Y (from UniProt P0DTC2 331-527) (domain or fragment)” registered a dissociation constant Kd of 1.9 nM, a koff of 0.000512 s⁻¹ and an on-rate (kon) of 277000 M⁻¹ s⁻¹. For the same substance, in assay [2], the Kd turned out to be 2.3 nM, the off-rate (koff) was 0.000412 s⁻¹ and the kon was found to be 177000 M⁻¹ s⁻¹.
In assay [1], “SARS-CoV-2 RBD K417N (from UniProt P0DTC2 331-527) (domain or fragment)” displayed a Kd of 1.3 nM, a dissociation rate constant (koff) of 0.000457 s⁻¹ and an on-rate (kon) of 353000 M⁻¹ s⁻¹. For the same substance, in assay [2], the Kd came to 1.7 nM, the koff came out at 0.000352 s⁻¹ and the kon worked out at 211000 M⁻¹ s⁻¹.
Turning to “SARS-CoV-2 RBD P.1, Gamma (K417T, E484K, N501Y) (from UniProt P0DTC2 331-527) (domain or fragment)”, in assay [1], the Kd came out at 4.2 nM, the koff was found to be 0.000305 s⁻¹ and the kon was determined as 73500 M⁻¹ s⁻¹. Further, in assay [2], the dissociation constant (Kd) came out at 6.5 nM, the koff was found to be 0.000508 s⁻¹ and the kon is 78000 M⁻¹ s⁻¹.
